Patent US20090208538A1 (ROCKEFELLER UNIVERSITY, published 2009)

What follows are binders tested against HLA-A*1101 (human) (assay: iTopia off-rate).

Row | Binder | t1/2
1 | KEIFSCIKK [cdr2 427-435 KEIFSCIKK] | 3.74
2 | IFSCIKKTK [cdr2 429-437 IFSCIKKTK] | 0.92
3 | RQMNEQHAK [cdr2 74-82 RQMNEQHAK] | 3.85

Further lines, results first:

Row | t1/2 | Binder
4 | 0.56 | LQAQLSLER [cdr2 205-213 LQAQLSLER]
5 | 0.3 | GATGAYRAR [cdr2 238-246 GATGAYRAR]
6 | 0.41 | PDSLYVPFK [cdr2 276-284 PDSLYVPFK]

What follows are binders tested against HLA-A*2402 (human) (assay: iTopia off-rate).

Row | t1/2 | Binder
7 | 0.46 | TPPEYKALF [cdr2 418-426 TPPEYKALF]
8 | 0.59 | TVTMLQAQL [cdr2 201-209 TVTMLQAQL]
9 | 1.26 | VPDSLYVPF [cdr2 275-283 VPDSLYVPF]
10 | 1.16 | IFSCIKKTK [cdr2 429-437 IFSCIKKTK]
11 | 0.72 | ECLQTNIDH [cdr2 120-128 ECLQTNIDH]

The binders below were run against HLA-A*0301 (human) (assay: iTopia net score).

Row | Binder | iScore
12 | CIRRAKAVK [cdr2 331-339 CIRRAKAVK] | 0.436
13 | KEIFSCIKK [cdr2 427-435 KEIFSCIKK] | 0.231
14 | RQMNEQHAK [cdr2 74-82 RQMNEQHAK] | 0.147

Second part, the binder after the results:

Row | iScore | Binder
15 | 0.122 | PAPSFACLK [cdr2 154-162 PAPSFACLK]
16 | 0.05 | HPFVNGVEK [cdr2 265-273 HPFVNGVEK]
17 | 0.087 | LQAQLSLER [cdr2 205-213 LQAQLSLER]

The binders below were run against T1, HLA-A*0201 (human) (assay: iTopia binding;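 note: each peptide tested for binding to HLA-A2 molecules immobilized on plates, using a commercial screening kit run per its supplied protocol and reagents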).
T1 construct: also called HLA-A2.1; HLA A2.1

Row | binding vs positive control | Binder
18 | > 30% | TVTMLQAQL [cdr2 201-209 TVTMLQAQL]
19 | > 30% | LVLKENSEL [cdr2 225-233 LVLKENSEL]
20 | > 30% | ECLQTNIDH [cdr2 120-128 ECLQTNIDH]

The binders below were run against T1, HLA-A*0201 (assay: iTopia affinity;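 note: peptide affinity for plate-bound HLA-A2 molecules (iTopia system), with ED50 derived from an eight-point serial peptide dilution series run under binding assay conditions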).

Row | ED50 | Binder
21 | 3 µM | TVTMLQAQL [cdr2 201-209 TVTMLQAQL]
22 | 7 µM | LVLKENSEL [cdr2 225-233 LVLKENSEL]
23 | 30 µM | ECLQTNIDH [cdr2 120-128 ECLQTNIDH]

These binders were tested against HLA-A*1101 (human) (assay: iTopia net score).

Row | Binder | iScore
24 | KEIFSCIKK [cdr2 427-435 KEIFSCIKK] | 0.392
25 | IFSCIKKTK [cdr2 429-437 IFSCIKKTK] | 0.088
26 | RQMNEQHAK [cdr2 74-82 RQMNEQHAK] | 0.396

The remaining lines, values ahead:

Row | iScore | Binder
27 | 0.118 | LQAQLSLER [cdr2 205-213 LQAQLSLER]
28 | 0.056 | GATGAYRAR [cdr2 238-246 GATGAYRAR]
29 | 0.063 | PDSLYVPFK [cdr2 276-284 PDSLYVPFK]

Each binder was assayed against T1, HLA-A*0201 (assay: iTopia off-rate;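 note: Half-life of peptide complexes with plate-bound HLA-A2, peptides loaded 18 h at 21 C, washed, then held at 37 C over several time points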).

Row | t1/2 | Binder
30 | 0.6 | TVTMLQAQL [cdr2 201-209 TVTMLQAQL]
31 | 0.8 | LVLKENSEL [cdr2 225-233 LVLKENSEL]
32 | 5.4 | ECLQTNIDH [cdr2 120-128 ECLQTNIDH]

Each binder was assayed against HLA-A*2402 (human) (assay: iTopia net score;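 note: iScore from iTopia software combining peptide binding, affinity over a dilution series and off-rate after warming to body temperature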).

Row | iScore | Binder
33 | 0.084 | TPPEYKALF [cdr2 418-426 TPPEYKALF]
34 | 0.062 | TVTMLQAQL [cdr2 201-209 TVTMLQAQL]
35 | 0.116 | VPDSLYVPF [cdr2 275-283 VPDSLYVPF]
36 | 0.108 | IFSCIKKTK [cdr2 429-437 IFSCIKKTK]
37 | 0.095 | ECLQTNIDH [cdr2 120-128 ECLQTNIDH]

What follows are binders tested against HLA-B*0702 (human) (assay: iTopia affinity).

Row | Binder | ED50
38 | ENSELEQQL [cdr2 229-237 ENSELEQQL] | 93 µM
39 | LAAELGKTL [cdr2 30-38 LAAELGKTL] | 33 µM
40 | KPAPSFACL [cdr2 153-161 KPAPSFACL] | 5.5 µM
41 | VPESHRKPL [cdr2 298-306 VPESHRKPL] | 9.9 µM
42 | VPDSLYVPF [cdr2 275-283 VPDSLYVPF] | 47 µM
43 | LVLKENSEL [cdr2 225-233 LVLKENSEL] | 34 µM
44 | KQVELLRQM [cdr2 68-76 KQVELLRQM] | 180 µM

Continued, values first:

Row | ED50 | Binder
45 | 100 µM | TPPEYKALF [cdr2 418-426 TPPEYKALF]
46 | 73 µM | RTKYRSLSS [cdr2 444-452 RTKYRSLSS]
47 | 18 µM | EVAEMRQML [cdr2 253-261 EVAEMRQML]
48 | 18 µM | TSRAAAKDL [cdr2 381-389 TSRAAAKDL]

The binders below were run against HLA-A*2402 (human) (assay: iTopia affinity;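 note: peptide binding to HLA-A*2402 measured in iTopia kit format across eight serial peptide dilutions, ED50 derived from the resulting titration curve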).

Row | ED50 | Binder
49 | 11 µM | TPPEYKALF [cdr2 418-426 TPPEYKALF]
50 | 43 µM | TVTMLQAQL [cdr2 201-209 TVTMLQAQL]
51 | 9.2 µM | VPDSLYVPF [cdr2 275-283 VPDSLYVPF]
52 | 8.6 µM | IFSCIKKTK [cdr2 429-437 IFSCIKKTK]
53 | 18 µM | ECLQTNIDH [cdr2 120-128 ECLQTNIDH]

The binders below were run against HLA-A*1101 (human) (assay: iTopia affinity;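 note: affinity derived from a titration of eight serial peptide dilutions, each run under the same conditions as the binding screen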).

Row | Binder | ED50
54 | KEIFSCIKK [cdr2 427-435 KEIFSCIKK] | 7 µM
55 | IFSCIKKTK [cdr2 429-437 IFSCIKKTK] | 12 µM
56 | RQMNEQHAK [cdr2 74-82 RQMNEQHAK] | 11 µM

Results, then the binder that gave them:

Row | ED50 | Binder
57 | 11 µM | LQAQLSLER [cdr2 205-213 LQAQLSLER]
58 | 19 µM | GATGAYRAR [cdr2 238-246 GATGAYRAR]
59 | 25 µM | PDSLYVPFK [cdr2 276-284 PDSLYVPFK]

These binders were tested against HLA-B*0702 (human) (assay: iTopia net score).

Row | Binder | iScore
60 | ENSELEQQL [cdr2 229-237 ENSELEQQL] | 0.05
61 | LAAELGKTL [cdr2 30-38 LAAELGKTL] | 0.052
62 | KPAPSFACL [cdr2 153-161 KPAPSFACL] | 0.205
63 | VPESHRKPL [cdr2 298-306 VPESHRKPL] | 0.22
64 | VPDSLYVPF [cdr2 275-283 VPDSLYVPF] | 0.068
65 | LVLKENSEL [cdr2 225-233 LVLKENSEL] | 0.054
66 | KQVELLRQM [cdr2 68-76 KQVELLRQM] | 0.055

Further lines, results first:

Row | iScore | Binder
67 | 0.027 | TPPEYKALF [cdr2 418-426 TPPEYKALF]
68 | 0.031 | RTKYRSLSS [cdr2 444-452 RTKYRSLSS]
69 | 0.077 | EVAEMRQML [cdr2 253-261 EVAEMRQML]
70 | 0.067 | TSRAAAKDL [cdr2 381-389 TSRAAAKDL]

Each binder was assayed against HLA-A*0301 (human) (assay: iTopia affinity).

Row | Binder | ED50
71 | CIRRAKAVK [cdr2 331-339 CIRRAKAVK] | 14 µM
72 | KEIFSCIKK [cdr2 427-435 KEIFSCIKK] | 13 µM
73 | RQMNEQHAK [cdr2 74-82 RQMNEQHAK] | 58 µM

More lines, now with the values ahead:

Row | ED50 | Binder
74 | 11 µM | PAPSFACLK [cdr2 154-162 PAPSFACLK]
75 | 34 µM | HPFVNGVEK [cdr2 265-273 HPFVNGVEK]
76 | 19 µM | LQAQLSLER [cdr2 205-213 LQAQLSLER]

The binders below were run against T1, HLA-A*0201 (assay: iTopia net score;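 note: combined score from peptide binding, ED₅₀ and half-life of peptide complexes with plate-bound HLA-A2 molecules, computed by a proprietary formula in iTopia software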).

Row | iScore | Binder
77 | 0.132 | TVTMLQAQL [cdr2 201-209 TVTMLQAQL]
78 | 0.119 | LVLKENSEL [cdr2 225-233 LVLKENSEL]
79 | 0.178 | ECLQTNIDH [cdr2 120-128 ECLQTNIDH]

What follows are binders tested against HLA-B*0702 (human) (assay: iTopia off-rate).

Row | Binder | t1/2
80 | ENSELEQQL [cdr2 229-237 ENSELEQQL] | 1.13
81 | LAAELGKTL [cdr2 30-38 LAAELGKTL] | 0.5
82 | KPAPSFACL [cdr2 153-161 KPAPSFACL] | 1.29
83 | VPESHRKPL [cdr2 298-306 VPESHRKPL] | 1.33
84 | VPDSLYVPF [cdr2 275-283 VPDSLYVPF] | 0.58
85 | LVLKENSEL [cdr2 225-233 LVLKENSEL] | 0.49
86 | KQVELLRQM [cdr2 68-76 KQVELLRQM] | 1.15

Now from value to binder:

Row | t1/2 | Binder
87 | 1.26 | TPPEYKALF [cdr2 418-426 TPPEYKALF]
88 | 1.83 | RTKYRSLSS [cdr2 444-452 RTKYRSLSS]
89 | 0.74 | EVAEMRQML [cdr2 253-261 EVAEMRQML]
90 | 1.19 | TSRAAAKDL [cdr2 381-389 TSRAAAKDL]

Each binder was assayed against HLA-A*0301 (human) (assay: iTopia off-rate).

Row | Binder | t1/2
91 | CIRRAKAVK [cdr2 331-339 CIRRAKAVK] | 6.47
92 | KEIFSCIKK [cdr2 427-435 KEIFSCIKK] | 5.82
93 | RQMNEQHAK [cdr2 74-82 RQMNEQHAK] | 3.69

More lines, now with the values ahead:

Row | t1/2 | Binder
94 | 2.19 | PAPSFACLK [cdr2 154-162 PAPSFACLK]
95 | 0.61 | HPFVNGVEK [cdr2 265-273 HPFVNGVEK]
96 | 0.99 | LQAQLSLER [cdr2 205-213 LQAQLSLER]
